# B1: R-spondin 1: Wnt signaling activator (R&D systems) (protein, UniProt Q2MKA7 21-263, looked up)
# R-spondin-1: SRGIKGKRQRRISAEGSQACAKGCELCSEVNGCLKCSPKLFILLERNDIRQVGVCLPSCPPGYFDARNPDMNKCIKCKIEHCEACFSHNFCTKCKEGLYLHKGRCYPACPEGSSAANGTMECSSPAQCEMSEWSPWGPCSKKQQLCGFRRGSEERTRRVLHAPVGDHAACSDTKETRRCTVRRVPCPEGQKRRKGGQGRRENANRNLARKESKEAGAGSRRRKGQQQQQQQGTVGPLTSAGPA
# Tested on: tip cell colonies
# Test: Reconstitution of iUB organoids from tip cell colonies
# Format: cell-based, human
# Details: organoid medium with Wnt3a conditioned medium and R-spondin 1 in place of CHIR99021
# Procedure: Hydrogel was dissolved with Cell Recovery Solution (BD Biosciences) for 1 h at 4° C. to detach day 7 tip cell colonies. After washing with additional Cell Recovery Solution, the tip cell colonies were centrifuged at 500 g for 5 min at room temperature. Essential 6 medium containing 0.1 μM LDN193189, 100 ng/ml GDNF, 0.1 μM TTNPB, 200 ng/ml FGF8, 1 μM CHIR99021 or 10% Afamin/Wnt3a conditioned medium (MBL), 200 ng/ml R-spondin 1 (R&D systems), 50 ng/ml EGF, 200 ng/ml FGF1 and 10% Matrigel was applied to the tube including tip cell colonies. After pipetting gently with a wide-mouth micropipette (BMBio) not to break colonies, the suspension was distributed to low-attachment 35 mm dish (Sumitomo Bakelite) at 2 mL/dish. The medium was refreshed every 2 days. On day 4, each colony was placed onto one well of low-attachment 96-well plates in the same medium. After an additional 6 days, the tip region was separated from the reconstituted iUB organoid and treated with the same medium for 35 days.
molecule,measurement,value
B1,reconstitution of iUB organoids from tip cell colonies,iUB organoids could be reconstituted from tip cell colonies derived from any iPS cell lines

# From patent US12577536B2, “Method for isolating ureteric bud tip cells” (KYOTO UNIVERSITY, priority 2019, dated 2026)
